How the values were obtained:
[1] = polymer sandwich ELISA of cell lysates; conditions: glycan lost
[2] = non-denaturing PAGE and western blot, COS-7; conditions: glycan lost
[3] = western densitometry, insoluble fraction, MG132 treatment; conditions: glycan lost; control: G392E NS
[4] = western blot, soluble plus insoluble intracellular fractions; conditions: glycan lost; control: G392E NS
[5] = 35S pulse-chase, total intracellular NS up to 24 h; conditions: glycan lost; control: G392E NS
[6] = SDS/PAGE western blot densitometry of insoluble fraction; conditions: glycan lost; control: wild type NS

Row | Protein | oligomerisation ([1]; control: G392E NS) | oligomerisation ([2]; control: G392E NS) | other: insoluble NS accumulating under proteasome inhibition [3] | localisation_or_trafficking [4] | oligomerisation ([1]; control: wild type NS) | oligomerisation ([2]; control: wild type NS) | degradation_or_half_life [5] | other: amount in insoluble intracellular fraction [6]
1 | G392E neuroserpin (G392E NS): G392E/N321A (protein) parent chain: MAFLGLFSLLVLQSMATGATFPEEAIADLSVNMYNRLRATGEDENILFSPLSIALAMGMMELGAQGSTQKEIRHSMGYDSLKNGEEFSFLKEFSNMVTAKESQYVMKIANSLFVQNGFHVNEEFLQMMKKYFNAAVNHVDFSQNVAVANYINKWVENNTNNLVKDLVSPRDFDAATYLALINAVYFKGNWKSQFRPENTRTFSFTKDDESEVQIPMMYQQGEFYYGEFSDGSNEAGGIYQVLEIPYEGDEISMMLVLSRQEVPLATLEPLVKAQLVEEWANSVKKQKVEVYLPRFTVEQEIDLKDVLKALGITEIFIKDANLTGLSDNKEIFLSKAIHKSFLEVNEEGSEAAAVSGMIAISRMAVLYPQVIVDHPFFFLIRNRRTGTILFMERVMHPETMNTSGHDFEEL | increases | increases | increases | increases | – | – | – | –
2 | neuroserpin (NS), wild type: N321A (protein) parent chain: MAFLGLFSLLVLQSMATGATFPEEAIADLSVNMYNRLRATGEDENILFSPLSIALAMGMMELGAQGSTQKEIRHSMGYDSLKNGEEFSFLKEFSNMVTAKESQYVMKIANSLFVQNGFHVNEEFLQMMKKYFNAAVNHVDFSQNVAVANYINKWVENNTNNLVKDLVSPRDFDAATYLALINAVYFKGNWKSQFRPENTRTFSFTKDDESEVQIPMMYQQGEFYYGEFSDGSNEAGGIYQVLEIPYEGDEISMMLVLSRQEVPLATLEPLVKAQLVEEWANSVKKQKVEVYLPRFTVEQEIDLKDVLKALGITEIFIKDANLTGLSDNKEIFLSKAIHKSFLEVNEEGSEAAAVSGMIAISRMAVLYPQVIVDHPFFFLIRNRRTGTILFMGRVMHPETMNTSGHDFEEL | – | – | – | – | increases | increases | – | –
3 | neuroserpin (NS), wild type: N157A (protein) parent chain: MAFLGLFSLLVLQSMATGATFPEEAIADLSVNMYNRLRATGEDENILFSPLSIALAMGMMELGAQGSTQKEIRHSMGYDSLKNGEEFSFLKEFSNMVTAKESQYVMKIANSLFVQNGFHVNEEFLQMMKKYFNAAVNHVDFSQNVAVANYINKWVENNTNNLVKDLVSPRDFDAATYLALINAVYFKGNWKSQFRPENTRTFSFTKDDESEVQIPMMYQQGEFYYGEFSDGSNEAGGIYQVLEIPYEGDEISMMLVLSRQEVPLATLEPLVKAQLVEEWANSVKKQKVEVYLPRFTVEQEIDLKDVLKALGITEIFIKDANLTGLSDNKEIFLSKAIHKSFLEVNEEGSEAAAVSGMIAISRMAVLYPQVIVDHPFFFLIRNRRTGTILFMGRVMHPETMNTSGHDFEEL | – | – | – | – | increases | increases | – | –
4 | G392E neuroserpin (G392E NS): G392E/N157A (protein) parent chain: MAFLGLFSLLVLQSMATGATFPEEAIADLSVNMYNRLRATGEDENILFSPLSIALAMGMMELGAQGSTQKEIRHSMGYDSLKNGEEFSFLKEFSNMVTAKESQYVMKIANSLFVQNGFHVNEEFLQMMKKYFNAAVNHVDFSQNVAVANYINKWVENNTNNLVKDLVSPRDFDAATYLALINAVYFKGNWKSQFRPENTRTFSFTKDDESEVQIPMMYQQGEFYYGEFSDGSNEAGGIYQVLEIPYEGDEISMMLVLSRQEVPLATLEPLVKAQLVEEWANSVKKQKVEVYLPRFTVEQEIDLKDVLKALGITEIFIKDANLTGLSDNKEIFLSKAIHKSFLEVNEEGSEAAAVSGMIAISRMAVLYPQVIVDHPFFFLIRNRRTGTILFMERVMHPETMNTSGHDFEEL | – | increases | – | increases | – | – | – | –
5 | G392E neuroserpin (G392E NS): G392E/N401A (protein) parent chain: MAFLGLFSLLVLQSMATGATFPEEAIADLSVNMYNRLRATGEDENILFSPLSIALAMGMMELGAQGSTQKEIRHSMGYDSLKNGEEFSFLKEFSNMVTAKESQYVMKIANSLFVQNGFHVNEEFLQMMKKYFNAAVNHVDFSQNVAVANYINKWVENNTNNLVKDLVSPRDFDAATYLALINAVYFKGNWKSQFRPENTRTFSFTKDDESEVQIPMMYQQGEFYYGEFSDGSNEAGGIYQVLEIPYEGDEISMMLVLSRQEVPLATLEPLVKAQLVEEWANSVKKQKVEVYLPRFTVEQEIDLKDVLKALGITEIFIKDANLTGLSDNKEIFLSKAIHKSFLEVNEEGSEAAAVSGMIAISRMAVLYPQVIVDHPFFFLIRNRRTGTILFMERVMHPETMNTSGHDFEEL | increases | increases | increases | increases | – | – | no change | –
6 | neuroserpin (NS), wild type: N157A/N321A (protein) parent chain: MAFLGLFSLLVLQSMATGATFPEEAIADLSVNMYNRLRATGEDENILFSPLSIALAMGMMELGAQGSTQKEIRHSMGYDSLKNGEEFSFLKEFSNMVTAKESQYVMKIANSLFVQNGFHVNEEFLQMMKKYFNAAVNHVDFSQNVAVANYINKWVENNTNNLVKDLVSPRDFDAATYLALINAVYFKGNWKSQFRPENTRTFSFTKDDESEVQIPMMYQQGEFYYGEFSDGSNEAGGIYQVLEIPYEGDEISMMLVLSRQEVPLATLEPLVKAQLVEEWANSVKKQKVEVYLPRFTVEQEIDLKDVLKALGITEIFIKDANLTGLSDNKEIFLSKAIHKSFLEVNEEGSEAAAVSGMIAISRMAVLYPQVIVDHPFFFLIRNRRTGTILFMGRVMHPETMNTSGHDFEEL | – | – | – | – | increases | increases | – | increases
